Tests used:
Test in all cases: SPR (Biacore)
[1] = biological target: T1, human V158 FcγRIIIa receptor protein (6xHis and GST tags) (human, UniProt P08637 17-208, limits assumed)
T1 construct: also called VIIIa

[2] = biological target: T2, human FcγRIIb receptor protein (R&D Systems) (human, UniProt P31994 46-217)
T2 construct: Analyte injected over antibodies captured on a protein A/G chip (Biacore); also called CD32b
T2 sequence (looked up): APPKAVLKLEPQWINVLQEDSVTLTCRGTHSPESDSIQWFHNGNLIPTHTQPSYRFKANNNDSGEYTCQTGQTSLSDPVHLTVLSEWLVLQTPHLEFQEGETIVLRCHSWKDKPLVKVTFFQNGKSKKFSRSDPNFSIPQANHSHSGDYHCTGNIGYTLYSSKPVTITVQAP

[3] = biological target: T3, human FcγRI receptor protein (R&D Systems) (human, UniProt P12314 16-288)
T3 construct: also called CD64

[4] = biological target: T4, human H131 FcγRIIa receptor protein (6xHis and GST tags) (human, UniProt P12318 34-217, limits assumed)
T4 construct: also called HIIa
T4 sequence (looked up): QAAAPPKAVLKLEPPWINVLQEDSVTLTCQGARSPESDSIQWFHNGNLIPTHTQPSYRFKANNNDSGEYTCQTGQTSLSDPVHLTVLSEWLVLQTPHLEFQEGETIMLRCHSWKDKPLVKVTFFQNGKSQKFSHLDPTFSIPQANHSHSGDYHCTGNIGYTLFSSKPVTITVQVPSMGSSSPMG

[5] = biological target: T5, FcγRIIaR (human, UniProt P12318)
T5 construct: recombinant receptor protein with 6xHis and GST tags; also called R131 FcγRIIa
T5 sequence (receptor, looked up): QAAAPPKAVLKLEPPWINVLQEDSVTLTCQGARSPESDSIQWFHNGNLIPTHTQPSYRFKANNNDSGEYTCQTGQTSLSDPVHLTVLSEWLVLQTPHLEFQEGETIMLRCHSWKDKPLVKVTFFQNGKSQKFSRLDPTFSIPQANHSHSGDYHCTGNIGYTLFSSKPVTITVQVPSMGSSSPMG

T3 sequence (P12314 16-288 limits assumed): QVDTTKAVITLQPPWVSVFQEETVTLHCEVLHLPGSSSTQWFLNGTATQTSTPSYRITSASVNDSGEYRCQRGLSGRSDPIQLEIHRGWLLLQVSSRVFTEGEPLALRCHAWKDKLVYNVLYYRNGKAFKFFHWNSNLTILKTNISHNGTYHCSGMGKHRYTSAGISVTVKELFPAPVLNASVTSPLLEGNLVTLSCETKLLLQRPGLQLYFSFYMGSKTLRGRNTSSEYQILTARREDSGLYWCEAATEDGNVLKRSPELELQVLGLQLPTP
T1 sequence (P08637 17-208 F176V limits assumed): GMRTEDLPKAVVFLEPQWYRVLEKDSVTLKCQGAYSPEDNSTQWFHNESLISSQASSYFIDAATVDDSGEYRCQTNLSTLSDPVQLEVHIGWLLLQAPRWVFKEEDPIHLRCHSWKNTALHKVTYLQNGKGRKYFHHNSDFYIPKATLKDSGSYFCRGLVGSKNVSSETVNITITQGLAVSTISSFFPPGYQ

Binder	binding result [1]	Fold FcγRIIb [2] [fold]	Fold FcγRI [3] [fold]	binding result [4]	Fold FcγRIIaR [5] [fold]	Fold FcγRIIaH [4] [fold]	Fold FcγRIIIaV [1] [fold]
G237D/S267E (antibody, human IgG1, kappa, HuAM4G7 IgG1 Fc variant) heavy: not shown light: DIVMTQSPATLSLSPGERATLSCRSSKSLQNVNGNTYLYWFQQKPGQSPQLLIYRMSNLNSGVPDRFSGSGSGTEFTLTISSLEPEDFAVYYCMQHLEYPITFGAGTKLEIKRTVAAPSVFIFPPSDEQLKSGTASVVCLLNNFYPREAKVQWKVDNALQSGNSQESVTEQDSKDSTYSLSSTLTLSKADYEKHKVYACEVTHQGLSSPVTKSFNRGEC	no binding	17	0.0874	no binding	13.6	–	–
L235F/S267E (antibody, human IgG1, kappa, HuAM4G7 IgG1 Fc variant) heavy: not shown light: DIVMTQSPATLSLSPGERATLSCRSSKSLQNVNGNTYLYWFQQKPGQSPQLLIYRMSNLNSGVPDRFSGSGSGTEFTLTISSLEPEDFAVYYCMQHLEYPITFGAGTKLEIKRTVAAPSVFIFPPSDEQLKSGTASVVCLLNNFYPREAKVQWKVDNALQSGNSQESVTEQDSKDSTYSLSSTLTLSKADYEKHKVYACEVTHQGLSSPVTKSFNRGEC	no binding	28.4	0.0176	–	32.5	0.402	–
L235Y (antibody, human IgG1, kappa, HuAM4G7 IgG1 Fc variant) heavy: not shown light: DIVMTQSPATLSLSPGERATLSCRSSKSLQNVNGNTYLYWFQQKPGQSPQLLIYRMSNLNSGVPDRFSGSGSGTEFTLTISSLEPEDFAVYYCMQHLEYPITFGAGTKLEIKRTVAAPSVFIFPPSDEQLKSGTASVVCLLNNFYPREAKVQWKVDNALQSGNSQESVTEQDSKDSTYSLSSTLTLSKADYEKHKVYACEVTHQGLSSPVTKSFNRGEC	–	1.05	0.00232	–	1.28	1.35	0.504
H268E (antibody, human IgG1, kappa, HuAM4G7 IgG1 Fc variant) heavy: not shown light: DIVMTQSPATLSLSPGERATLSCRSSKSLQNVNGNTYLYWFQQKPGQSPQLLIYRMSNLNSGVPDRFSGSGSGTEFTLTISSLEPEDFAVYYCMQHLEYPITFGAGTKLEIKRTVAAPSVFIFPPSDEQLKSGTASVVCLLNNFYPREAKVQWKVDNALQSGNSQESVTEQDSKDSTYSLSSTLTLSKADYEKHKVYACEVTHQGLSSPVTKSFNRGEC	–	2.62	2.74	–	3.19	1.43	2.19
L235A (antibody, human IgG1, kappa, HuAM4G7 IgG1 Fc variant) heavy: not shown light: DIVMTQSPATLSLSPGERATLSCRSSKSLQNVNGNTYLYWFQQKPGQSPQLLIYRMSNLNSGVPDRFSGSGSGTEFTLTISSLEPEDFAVYYCMQHLEYPITFGAGTKLEIKRTVAAPSVFIFPPSDEQLKSGTASVVCLLNNFYPREAKVQWKVDNALQSGNSQESVTEQDSKDSTYSLSSTLTLSKADYEKHKVYACEVTHQGLSSPVTKSFNRGEC	–	0.351	0.0179	–	0.166	0.0486	0.314
H268D (antibody, human IgG1, kappa, HuAM4G7 IgG1 Fc variant) heavy: not shown light: DIVMTQSPATLSLSPGERATLSCRSSKSLQNVNGNTYLYWFQQKPGQSPQLLIYRMSNLNSGVPDRFSGSGSGTEFTLTISSLEPEDFAVYYCMQHLEYPITFGAGTKLEIKRTVAAPSVFIFPPSDEQLKSGTASVVCLLNNFYPREAKVQWKVDNALQSGNSQESVTEQDSKDSTYSLSSTLTLSKADYEKHKVYACEVTHQGLSSPVTKSFNRGEC	–	3.06	2.35	–	4.19	1.89	3.08
L235I (antibody, human IgG1, kappa, HuAM4G7 IgG1 Fc variant) heavy: not shown light: DIVMTQSPATLSLSPGERATLSCRSSKSLQNVNGNTYLYWFQQKPGQSPQLLIYRMSNLNSGVPDRFSGSGSGTEFTLTISSLEPEDFAVYYCMQHLEYPITFGAGTKLEIKRTVAAPSVFIFPPSDEQLKSGTASVVCLLNNFYPREAKVQWKVDNALQSGNSQESVTEQDSKDSTYSLSSTLTLSKADYEKHKVYACEVTHQGLSSPVTKSFNRGEC	–	0.908	0.0197	–	0.666	0.181	0.903
L234F/S267E (antibody, human IgG1, kappa, HuAM4G7 IgG1 Fc variant) heavy: not shown light: DIVMTQSPATLSLSPGERATLSCRSSKSLQNVNGNTYLYWFQQKPGQSPQLLIYRMSNLNSGVPDRFSGSGSGTEFTLTISSLEPEDFAVYYCMQHLEYPITFGAGTKLEIKRTVAAPSVFIFPPSDEQLKSGTASVVCLLNNFYPREAKVQWKVDNALQSGNSQESVTEQDSKDSTYSLSSTLTLSKADYEKHKVYACEVTHQGLSSPVTKSFNRGEC	–	26.4	0.661	–	20.7	0.509	0.0938

The remaining lines, values ahead:

binding result [1]	Fold FcγRIIb [2] [fold]	Fold FcγRI [3] [fold]	binding result [4]	Fold FcγRIIaR [5] [fold]	Fold FcγRIIaH [4] [fold]	Fold FcγRIIIaV [1] [fold]	Binder
no binding	80.4	0.00057	–	133	0.275	–	L235D/S267E/L328F (antibody, human IgG1, kappa, HuAM4G7 IgG1 Fc variant) heavy: EVQLVESGGGLVKPGGSLKLSCAASGYTFTSYVMHWVRQAPGKGLEWIGYINPYNDGTKYNEKFQGRVTISSDKSISTAYMELSSLRSEDTAMYYCARGTYYYGTRVFDYWGQGTLVTVSSASTKGPSVFPLAPSSKSTSGGTAALGCLVKDYFPEPVTVSWNSGALTSGVHTFPAVLQSSGLYSLSSVVTVPSSSLGTQTYICNVNHKPSNTKVDKKVEPKSCDKTHTCPPCPAPELDGGPSVFLFPPKPKDTLMISRTPEVTCVVVDVEHEDPEVKFNWYVDGVEVHNAKTKPREEQYNSTYRVVSVLTVLHQDWLNGKEYKCKVSNKAFPAPIEKTISKAKGQPREPQVYTLPPSREEMTKNQVSLTCLVKGFYPSDIAVEWESNGQPENNYKTTPPVLDSDGSFFLYSKLTVDKSRWQQGNVFSCSVMHEALHNHYTQKSLSLSPGK light: DIVMTQSPATLSLSPGERATLSCRSSKSLQNVNGNTYLYWFQQKPGQSPQLLIYRMSNLNSGVPDRFSGSGSGTEFTLTISSLEPEDFAVYYCMQHLEYPITFGAGTKLEIKRTVAAPSVFIFPPSDEQLKSGTASVVCLLNNFYPREAKVQWKVDNALQSGNSQESVTEQDSKDSTYSLSSTLTLSKADYEKHKVYACEVTHQGLSSPVTKSFNRGEC
no binding	195	0.0425	–	174	0.0725	–	L234E/S267E/L328F (antibody, human IgG1, kappa, HuAM4G7 IgG1 Fc variant) heavy: EVQLVESGGGLVKPGGSLKLSCAASGYTFTSYVMHWVRQAPGKGLEWIGYINPYNDGTKYNEKFQGRVTISSDKSISTAYMELSSLRSEDTAMYYCARGTYYYGTRVFDYWGQGTLVTVSSASTKGPSVFPLAPSSKSTSGGTAALGCLVKDYFPEPVTVSWNSGALTSGVHTFPAVLQSSGLYSLSSVVTVPSSSLGTQTYICNVNHKPSNTKVDKKVEPKSCDKTHTCPPCPAPEELGGPSVFLFPPKPKDTLMISRTPEVTCVVVDVEHEDPEVKFNWYVDGVEVHNAKTKPREEQYNSTYRVVSVLTVLHQDWLNGKEYKCKVSNKAFPAPIEKTISKAKGQPREPQVYTLPPSREEMTKNQVSLTCLVKGFYPSDIAVEWESNGQPENNYKTTPPVLDSDGSFFLYSKLTVDKSRWQQGNVFSCSVMHEALHNHYTQKSLSLSPGK light: DIVMTQSPATLSLSPGERATLSCRSSKSLQNVNGNTYLYWFQQKPGQSPQLLIYRMSNLNSGVPDRFSGSGSGTEFTLTISSLEPEDFAVYYCMQHLEYPITFGAGTKLEIKRTVAAPSVFIFPPSDEQLKSGTASVVCLLNNFYPREAKVQWKVDNALQSGNSQESVTEQDSKDSTYSLSSTLTLSKADYEKHKVYACEVTHQGLSSPVTKSFNRGEC
no binding	15.1	0.131	no binding	10.7	–	–	L234E/S267E (antibody, human IgG1, kappa, HuAM4G7 IgG1 Fc variant) heavy: not shown light: DIVMTQSPATLSLSPGERATLSCRSSKSLQNVNGNTYLYWFQQKPGQSPQLLIYRMSNLNSGVPDRFSGSGSGTEFTLTISSLEPEDFAVYYCMQHLEYPITFGAGTKLEIKRTVAAPSVFIFPPSDEQLKSGTASVVCLLNNFYPREAKVQWKVDNALQSGNSQESVTEQDSKDSTYSLSSTLTLSKADYEKHKVYACEVTHQGLSSPVTKSFNRGEC
no binding	0.409	0.0362	no binding	0.228	–	–	L234F (antibody, human IgG1, kappa, HuAM4G7 IgG1 Fc variant) heavy: not shown light: DIVMTQSPATLSLSPGERATLSCRSSKSLQNVNGNTYLYWFQQKPGQSPQLLIYRMSNLNSGVPDRFSGSGSGTEFTLTISSLEPEDFAVYYCMQHLEYPITFGAGTKLEIKRTVAAPSVFIFPPSDEQLKSGTASVVCLLNNFYPREAKVQWKVDNALQSGNSQESVTEQDSKDSTYSLSSTLTLSKADYEKHKVYACEVTHQGLSSPVTKSFNRGEC
no binding	16.7	0.00039	no binding	13	–	–	L235D/S267E (antibody, human IgG1, kappa, HuAM4G7 IgG1 Fc variant) heavy: not shown light: DIVMTQSPATLSLSPGERATLSCRSSKSLQNVNGNTYLYWFQQKPGQSPQLLIYRMSNLNSGVPDRFSGSGSGTEFTLTISSLEPEDFAVYYCMQHLEYPITFGAGTKLEIKRTVAAPSVFIFPPSDEQLKSGTASVVCLLNNFYPREAKVQWKVDNALQSGNSQESVTEQDSKDSTYSLSSTLTLSKADYEKHKVYACEVTHQGLSSPVTKSFNRGEC
